Assay results taken from patent US8278415B2 (Centocor, Inc., dated 2012).
Read-outs that look alike come from different tables or passages of the source.

Experiments:
Assay in all cases: phage ELISA on coated sEGFR-MMB, chemiluminescence (background typically <200 units)
[1] = molecular target: sEGFR-MMB (human)
[2] = molecular target: sEGFR-MMB (human); remark: listed apart in the source
[3] = molecular target: sEGFR-MMB (human); remark: listed apart in the source
[4] = molecular target: sEGFR-MMB (human); remark: listed apart in the source
[5] = molecular target: sEGFR-MMB (human); remark: listed apart in the source

Chain of sEGFR-MMB (human) (chain, as listed by the source limits assumed): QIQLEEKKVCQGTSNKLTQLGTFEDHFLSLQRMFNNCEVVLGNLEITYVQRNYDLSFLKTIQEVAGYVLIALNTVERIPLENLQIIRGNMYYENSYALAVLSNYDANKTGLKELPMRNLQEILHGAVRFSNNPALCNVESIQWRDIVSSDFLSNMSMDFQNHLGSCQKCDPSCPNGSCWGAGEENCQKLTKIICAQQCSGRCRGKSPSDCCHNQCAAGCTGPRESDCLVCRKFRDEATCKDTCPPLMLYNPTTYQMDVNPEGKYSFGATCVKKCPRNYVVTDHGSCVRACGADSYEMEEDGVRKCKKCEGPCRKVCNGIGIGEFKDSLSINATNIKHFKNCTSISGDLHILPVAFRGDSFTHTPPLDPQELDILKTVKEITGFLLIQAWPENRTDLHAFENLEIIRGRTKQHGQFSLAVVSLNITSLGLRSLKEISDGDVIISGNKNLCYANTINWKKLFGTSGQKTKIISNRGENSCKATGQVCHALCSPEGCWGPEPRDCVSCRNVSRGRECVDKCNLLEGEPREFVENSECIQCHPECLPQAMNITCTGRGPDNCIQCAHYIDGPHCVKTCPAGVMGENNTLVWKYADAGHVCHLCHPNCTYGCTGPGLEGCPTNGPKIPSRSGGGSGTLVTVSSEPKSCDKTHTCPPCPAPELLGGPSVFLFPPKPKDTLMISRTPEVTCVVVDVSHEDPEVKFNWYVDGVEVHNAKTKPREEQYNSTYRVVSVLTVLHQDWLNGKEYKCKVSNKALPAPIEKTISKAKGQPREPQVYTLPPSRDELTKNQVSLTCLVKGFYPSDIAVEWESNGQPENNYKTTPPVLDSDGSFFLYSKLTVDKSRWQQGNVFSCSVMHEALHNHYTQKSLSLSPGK

Binder	ELISA [1] [units]	ELISA [2] [units]	other results
YDCVSFGAVAYCPQ [S18 library phage peptide of SEQ ID NO: 34]	3200		
AKCIAFGNSVYCLN [S18 library phage peptide of SEQ ID NO: 24]	31500		
LPDLICAVDSGTSGA [S15 library phage peptide of SEQ ID NO: 21]		1160	
TDCIRFGVLWYCLV [S18 library phage peptide of SEQ ID NO: 28]	4750		
DSCCSFLTDGTVVCSL [S20 library phage peptide of SEQ ID NO: 45]			ELISA [3]: 9540 units
CDCREAVSASLVCRY [S19 library phage peptide of SEQ ID NO: 41]			ELISA [4]: 3350 units
YRLFVDESIFFCTRL [S15 library phage peptide of SEQ ID NO: 10]		3080	
STITSLPTLQCWPIL [S15 library phage peptide of SEQ ID NO: 16]		13300	
AFCRLDFNQWLTCLV [S19 library phage peptide of SEQ ID NO: 40]			ELISA [4]: 2580 units
SDCVLFGSKLFCSA [S18 library phage peptide of SEQ ID NO: 32]	35300		
VSGILPILVCHPAAT [S15 library phage peptide of SEQ ID NO: 12]		1110	
LLCATTSFRDWFVCFT [S20 library phage peptide of SEQ ID NO: 49]			ELISA [3]: 4510 units
WMCFLEGYGASLMCQC [S20 library phage peptide of SEQ ID NO: 44]			ELISA [3]: 4800 units
AGCIAFVDVVYCAR [S18 library phage peptide of SEQ ID NO: 23]	6380		
DACTMVFLWCSL [P177]			ELISA [5]: 8660 units
SGCLDALWQCVY [P174]			ELISA [5]: 34600 units
NWFSLPTLLCFPLNP [S15 library phage peptide of SEQ ID NO: 15]		3670	
LPDDSLPELICKVRG [P175]		6790	
GADTLPDLLCWESSL [S15 library phage peptide of SEQ ID NO: 19]		5720	
RWCYFWWITICEL [P178]			ELISA [5]: 7910 units

Binder	ELISA [1] [units]	ELISA [2] [units]	other results
PIFSSLPVLYCTSQL [S15 library phage peptide of SEQ ID NO: 18]		1420	
RACITFGKVVYCEV [S18 library phage peptide of SEQ ID NO: 29]	30700		
TDCVIFGLETYCLR [P173]	37900		
PIDDESLPVLYCVTS [S15 library phage peptide of SEQ ID NO: 17]		1780	
KHCILFEKTVYCAK [S18 library phage peptide of SEQ ID NO: 26]	9110		
TDCVRFGETIYCIV [S18 library phage peptide of SEQ ID NO: 33]	13300		
PTCDSATRRVLTICAD [S20 library phage peptide of SEQ ID NO: 43]			ELISA [3]: 5420 units
YICTPSDIDSWYICYL [S20 library phage peptide of SEQ ID NO: 46]			ELISA [3]: 6620 units
TVFTLPELVCVVAGT [S15 library phage peptide of SEQ ID NO: 20]		1520	
KTCVSTTFDLWFVCFA [P176]			ELISA [3]: 37400 units
YDCMIRADGSLICWC [S19 library phage peptide of SEQ ID NO: 38]			ELISA [4]: 1290 units
HVSLQSLPELICVVS [S15 library phage peptide of SEQ ID NO: 14]		1360	
DSCIQFANLLYCAI [S18 library phage peptide of SEQ ID NO: 27]	53200		
RGCVVFGDNIYCIV [S18 library phage peptide of SEQ ID NO: 35]	22000		
ELGLPTLLCWPTDTL [S15 library phage peptide of SEQ ID NO: 11]		9380	
SVCVGTAFPGWMVCGP [S20 library phage peptide of SEQ ID NO: 47]			ELISA [3]: 4770 units
AYCSFVAGDLVCQV [S18 library phage peptide of SEQ ID NO: 30]	19800		
RDCIIFDKTVYCVI [S18 library phage peptide of SEQ ID NO: 25]	17100		
GPCVLIRDYYLLCLE [P179]			ELISA [4]: 14000 units
MICYLVDSGNIICYK [P180]			ELISA [4]: 8810 units
